Test results taken from the supplement of paper PMC11865577.

Each sequence was assayed on TO-N3-2 (biotin conjugate) (assay: pull-down binding Z-score (relative to library population); higher = stronger binding). Details: RNA library: Library-2.
Method in brief: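 Cy5- or Cy3-end-labelled RNA library (1 μg) was heat-folded in phosphate/NaCl/KCl buffer and incubated 60 min at 25 °C with streptavidin beads carrying 100 pmol biotin-conjugated small molecule. After three washes, bound RNA was eluted in hot SDS and hybridised 20 h at 55.5 °C to a DNA barcode microarray. Binding was scored by subtracting a beads-only control, averaging barcoded replicate probes after dropping highest and lowest, and converting to a Z-score against library mean and standard deviation.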

Row | Sequence | pull-down binding Z-score
1 | GGUUCACUAUAUGUUAAACCAGGUGGAACC | -0.369
2 | GGUUCGUGUCUUUAGCUAUAGAUGCUUACC | -0.066
3 | GGUUGGGAAAUUGUUAAAUUUAUCUCAACC | -0.802
4 | GGUUGGGAGAAGAGCAACAGCC [IAV_invivo_PB2_1_Motif_16+IAV_invivo_PB2_1_Motif_16] | 1.09
5 | GGUUGUAUGGUACAAGUAACUUGUGGUACAACU | -0.264
6 | GGUUUAACUUCUAUUAAAUGGGCAGAUAACAACUGUUAUCUUGCCACUGCAUUGUUAACACUCCAACAAAUAGAGUUGAAGUUUAAUCC | -0.63
7 | GGUUUAGCUGCUGUUAAUAGUGUCCCUUGGGAUACUAUAGCUAAUUAUGCUAAGCC | -0.225
8 | GGUUUAUACCUUCCCAGGUAACAAACC | -1.05
9 | GGUUUGUUACAGACACACC [SHAPE_invivo_SARS-CoV-2_Motif_243] | -0.785
10 | GGUUUGUUGCC [IAV_invivo_PB1_2_Motif_26+IAV_invivo_PB1_2_Motif_26] | -0.374
11 | GGUUUUAUAGCUGGCUUGAUUGCCAUAGUAAUGGUGACAAUUAUGCUUUGCUGUAUGACC | -0.582
12 | GUAAAUUUACUUAC [DMSMaPseq_invitro_SARS-CoV-2_Motif_170] | -0.635
13 | GUAAGAGAAUUCCUUAC | -0.727
14 | GUAAUGAUCCAUUUUUGGGUGUUUAUUAC [DMSMaPseq_invitro_SARS-CoV-2_Motif_387] | -0.998
15 | GUACAUACAGCUAAUAAAUGGGAUCUCAUUAUUAGUGAUAUGUAC | 0.426
16 | GUACAUGGGCACACUUUCUUAUGAACAAUUUAAGAAAGGUGUUCAGAUAC [DMSMaPseq_invitro_SARS-CoV-2_Motif_106] | -0.639
17 | GUACAUGGGCACACUUUCUUAUGAACAAUUUAAGAAAGGUGUUCAGAUACCUUGUAC [SHAPE_invitro_SARS-CoV-2_Motif_110] | -1.11
18 | GUACCAAAGGUGC [IAV_invivo_PB1_2_Motif_35+IAV_invivo_PB1_2_Motif_35] | -0.382
19 | GUACCUCAAGCUGAUGUAGAAUGGAAGUUCUAUGAUGCACAGCCUUGUAGUGAC [SHAPE_invitro_SARS-CoV-2_Motif_348] | 0.735
20 | GUACGAUCGAGUGUAC [DMSMaPseq_invitro_SARS-CoV-2_Motif_538] | 0.0595
21 | GUACUUAAUGAGAAGUGC [SHAPE_invivo_SARS-CoV-2_Motif_56] | -0.836
22 | GUACUUGGUAGUUUAGCUGCCACAGUAC | -0.818
23 | GUAGACAAUUCUAGUCUUAC [SHAPE_invitro_SARS-CoV-2_Motif_131] | -0.316

Row | Sequence | pull-down binding Z-score
24 | GUAGAGGAGGCAAAGACAGUGCUUAAAAAGUGUAAAAGUGCCUUUUAC | 0.576
25 | GUAUCUGAAUUAC | -0.281
26 | GUAUGAGCAGUAUAU [DMSMaPseq_invitro_SARS-CoV-2_Motif_451] | -0.416
27 | GUCAAAGUGAC [SHAPE_invivo_SARS-CoV-2_Motif_385] | -0.851
28 | GUCAAAGUGACUAUUGAC [SHAPE_invitro_SARS-CoV-2_Motif_373] | -0.385
29 | GUCACACCUUCGGGAACGUGGUUGAC | 0.518
30 | GUCAGUGAAACACAGGGAACAGAGAAACUGAC [IAV_invivo_PB2_1_Motif_24+IAV_invivo_PB2_1_Motif_24] | 0.355
31 | GUCCUAAAGUGAAGUAUUUAUACUUUAUUAAAGGAU [SHAPE_invivo_SARS-CoV-2_Motif_244] | -1.51
32 | GUCCUAUUACGGAU | -1.55
33 | GUCGCUACAGGAUUGGCAACUAUAAAUUAAACACAGACCAUUCCAGUAGCAGUGAC [SHAPE_invitro_SARS-CoV-2_Motif_494] | -0.283
34 | GUCGUUGACAGGACACGAGUAACUCGUCUAUCUUCUGCAGGCUGC [SARS-CoV-2-Conserved-Structured-34_Interval-80-197_Motif_3] | 2.14
35 | GUCUAAUCUCAAACCUUUUGAGAGAGAU | -1.07
36 | GUCUAGCUGUCCACGAGUGCUUUGUUAAGCGUGUUGACUGGAC | -0.24
37 | GUCUCCUACUAAAUUAAAUGAUCUCUGCUUUACUAAUGUCUAUGCAGAUUCAUUUGUAAUUAGAGGUGAU | -0.628
38 | GUCUCGCACCCGCGAGAU [IAV_invivo_PB2_1_Motif_2+IAV_invivo_PB2_1_Motif_2] | -0.742
39 | GUCUCUAUAGAAAUAGAGAU | -1.36
40 | GUCUCUGAAGAAGUAGUGGAAAAUCCUACCAUACAGAAAGAC | 0.831
41 | GUCUGAUAAUGGACCCCAAAAUCAGCGAAAUGCACCCCGCAUUACGUUUGGUGGACCCUCAGAU | -0.0686
42 | GUCUGGGAUCAACGAGUCAGCGGAC [IAV_invivo_PB1_2_Motif_28+IAV_invivo_PB1_2_Motif_28] | 0.401
43 | GUCUGGUAGUCGGAC [IAV_invivo_NA_6_Motif_1+IAV_invivo_NA_6_Motif_1] | -0.21
44 | GUCUUACACCGUGCGGCACAGGCACUAGUACUGAUGUCGUAUACAGGGCUUUUGAC [DMSMaPseq_invitro_SARS-CoV-2_Motif_242] | 0.217
45 | GUCUUUCCAGGGGC [IAV_invivo_NP_5_Motif_23+IAV_invivo_NP_5_Motif_23] | -0.0606
46 | GUGAAACAUUUGUCAC [SHAPE_invivo_SARS-CoV-2_Motif_46] | -0.394

Row | Sequence | pull-down binding Z-score
47 | GUGAAGAAUCAU | -0.489
48 | GUGAAUUCAACAU [DMSMaPseq_invitro_SARS-CoV-2_Motif_308] | -0.524
49 | GUGAGAGAGAGCCGGAACCCAGGGAAUGCUGAGUUCGAAGAUCUCAC [IAV_invivo_NP_5_Motif_14+IAV_invivo_NP_5_Motif_14] | 1.5
50 | GUGAUAGAGCCAUGCCUAACAUGCUUAGAAUUAUGGCCUCAC | -0.0566
51 | GUGAUGAACUGAAGAUUAAUGCGGCUUGUAGAAAGGUUCAACACAUGGUUGUUAAAGCUGCAUUAUUAGCAGACAAAUUCCCAGUUCUUCAC | 0.059
52 | GUGCACUUGACCCUCUCUCAGAAACAAAGUGUAC [SHAPE_invivo_SARS-CoV-2_Motif_422] | -0.312
53 | GUGCAGAAUGAAUUCUCGUAACUACAUAGCACAAGUAGAUGUAGUUAACUUUAAUCUCAC | -0.275
54 | GUGCCACUCCAUGGCAC | -0.862
55 | GUGCCAGCACAAAAUGCUAUAAGCAC [IAV_invivo_PB1_2_Motif_3+IAV_invivo_PB1_2_Motif_3] | -0.727
56 | GUGCCAUCAAAUUGGAUGACAAAGAUCCAAAUUUCAAAGAUCAAGUCAUUUUGCUGAAUAAGCAUAUUGACGCAU | -0.159
57 | GUGCCCAAAAUACGUCAGGAGUGC [IAV_invivo_HA_4_Motif_13+IAV_invivo_HA_4_Motif_13] | 0.402
58 | GUGCCUGGAAUAUUGGUGAACAGAAAUCAAUACUGAGUCCUCUUUAUGCAUUUGCAUCAGAGGCUGCUCGUGUUGUACGAUCAAUUUUCUCCCGCAC [SHAPE_invivo_SARS-CoV-2_Motif_37] | 0.225
59 | GUGCGGCACAGGCACUAGUACUGAUGUCGUAU [SHAPE_invitro_SARS-CoV-2_Motif_246] | 0.326
60 | GUGCGUAUAAAGAUUGUACAAAUGUUAAGUGACACACUUAAAAAUCUCUCUGACAGAGUCGUAUUUGUCUUAUGGGCAC [DMSMaPseq_invitro_SARS-CoV-2_Multi_54_ComplexLevel_1] | -0.644
61 | GUGCUAAGCAC | -1.24
62 | GUGCUAAUGACCCUGUGGGUUUUACAC [SHAPE_invivo_SARS-CoV-2_Motif_252] | -0.465
63 | GUGCUUGGGACAUUUGAUACCGCAC [IAV_invivo_PB2_1_Motif_30+IAV_invivo_PB2_1_Motif_30] | 0.571
64 | GUGGAUGGUUAUGUUCAC | -0.628
65 | GUGGCACUGAGAAUUUGACUAAAGAAGGUGCCAC | 0.38
66 | GUGGCCCUGAUGGCUAC | -0.0973
67 | GUGGCUAAAUCUGAAUUUGACCGUGAUGCAGCCAU [DMSMaPseq_invitro_SARS-CoV-2_Motif_214] | -0.12
68 | GUGGGGUAUUCAUCACCCGC [IAV_invivo_HA_4_Motif_9+IAV_invivo_HA_4_Motif_9] | 0.897
69 | GUGGUAGUUAUACUAAUGACAAAGCUUGCCCAUUGAUUGCUGC [DMSMaPseq_invitro_SARS-CoV-2_Motif_161] | 0.208
